The data set concerns the target T1, Human ACLY, His-tagged, bacterially expressed and purified recombinant full length protein, P53396.
T1 chain: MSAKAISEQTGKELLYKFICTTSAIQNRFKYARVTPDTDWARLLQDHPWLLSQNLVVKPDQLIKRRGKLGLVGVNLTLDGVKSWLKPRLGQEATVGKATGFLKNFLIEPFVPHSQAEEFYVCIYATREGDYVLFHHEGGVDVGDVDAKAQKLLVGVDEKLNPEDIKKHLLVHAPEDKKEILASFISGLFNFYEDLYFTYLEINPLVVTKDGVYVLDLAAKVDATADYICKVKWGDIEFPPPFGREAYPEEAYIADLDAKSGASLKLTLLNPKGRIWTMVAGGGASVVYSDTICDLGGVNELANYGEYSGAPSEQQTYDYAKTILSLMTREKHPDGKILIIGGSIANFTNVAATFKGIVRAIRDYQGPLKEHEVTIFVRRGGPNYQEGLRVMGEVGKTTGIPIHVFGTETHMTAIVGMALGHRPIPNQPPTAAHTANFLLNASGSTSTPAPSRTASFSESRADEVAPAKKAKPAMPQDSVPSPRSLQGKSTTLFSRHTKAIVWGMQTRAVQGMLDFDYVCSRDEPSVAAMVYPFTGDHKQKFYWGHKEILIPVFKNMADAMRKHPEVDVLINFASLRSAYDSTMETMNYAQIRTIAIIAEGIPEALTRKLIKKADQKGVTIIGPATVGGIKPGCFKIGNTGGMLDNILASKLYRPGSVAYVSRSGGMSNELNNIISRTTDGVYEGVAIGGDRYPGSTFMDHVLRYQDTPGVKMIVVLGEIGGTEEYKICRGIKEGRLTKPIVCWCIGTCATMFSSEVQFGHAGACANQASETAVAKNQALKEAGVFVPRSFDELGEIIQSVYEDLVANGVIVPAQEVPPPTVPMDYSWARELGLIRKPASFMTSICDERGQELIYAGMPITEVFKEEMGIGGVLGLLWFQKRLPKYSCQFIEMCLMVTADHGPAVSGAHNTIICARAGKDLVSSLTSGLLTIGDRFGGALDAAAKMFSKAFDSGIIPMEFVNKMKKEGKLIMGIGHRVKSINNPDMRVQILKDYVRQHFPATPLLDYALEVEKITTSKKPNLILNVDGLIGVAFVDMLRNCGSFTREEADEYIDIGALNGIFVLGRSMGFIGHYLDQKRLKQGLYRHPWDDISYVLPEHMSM

B1: Active recombinant Lyn kinase (protein)
chain: MGCIKSKGKDSLSDDGVDLKTQPVRNTERTIYVRDPTSNKQQRPVPESQLLPGQRFQTKDPEEQGDIVVALYPYDGIHPDDLSFKKGEKMKVLEEHGEWWKAKSLLTKKEGFIPSNYVAKLNTLETEEWFFKDITRKDAERQLLAPGNSAGAFLIRESETLKGSFSLSVRDFDPVHGDVIKHYKIRSLDNGGYYISPRITFPCISDMIKHYQKQADGLCRRLEKACISPKPQKPWDKDAWEIPRESIKLVKRLGAGQFGEVWMGYYNNSTKVAVKTLKPGTMSVQAFLEEANLMKTLQHDKLVRLYAVVTREEPIYIITEYMAKGSLLDFLKSDEGGKVLLPKLIDFSAQIAEGMAYIERKNYIHRDLRAANVLVSESLMCKIADFGLARVIEDNEYTAREGAKFPIKWTAPEAINFGCFTIKSDVWSFGILLYEIVTYGKIPYPGRTNADVMTALSQGYRMPRVENCPDELYDIMKMCWKEKAEERPTFDYLQSVLDDFYTATEGQYQQQP
Regarding B1, the “ACLY tyrosine residues phosphorylated (phosphoproteomics)” value is “The three ACLY tyrosine residues, Y682, Y252, Y227, were common for Lyn and Src”; the number of ACLY tyrosine residues phosphorylated (in vitro kinase assay, phosphoproteomics) (tyrosine residues) stood at 6.

The record behind these values is patent US20220218659.
